We go through one molecule from patent US20250026814A1.

“And” between values parts separate entries of the source, which are not always exact repeats. Equal values may be shown once.

The assay addresses spike BA.1 antigens. Briefly: ELISA (AUC). On the technique in general: In an ELISA, binding on a coated surface is turned into a signal by an enzyme label.

B1: S626-161 (antibody, V domains shown)
VH: QLQLQESGPGLVKPSETLSLTCTVSGGSISSNNYYWGWIRQPPGKGLEWIGSIYYSGSTYYNPSLKSRVTMSVDTSKNQFSLKLSSVTAADTAVYHCARQGPNYYDRSGYYYVGPFDIWGQGTMVTVSS
VL: QSVLTQPPSVSAAPGQKVTISCSGSSSNIGNNSVSWYQHLPGTAPKLLIYENNERPSGIPDRFSGSKSGTSATLGITGLQTGDEADYYCETWDRSLSASFGTGTKVTVL
Turning to B1, the fold reduced binding was 1.7 fold and 3.9 fold.
